{
  "source": "the nanobody polyreactivity screen of Harvey et al. (2022)",
  "data": [
    {"assay": "yeast display, Sf9 membrane polyspecificity reagent, FACS + sequencing; frameworks hold sequencing errors", "procedure,_shortened": "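After 36–48 hours of galactose induction, yeast (Saccharomyces cerevisiae BJ5465) displaying a synthetic nanobody library were stained at 4 °C for 1 hour with 10% biotinylated, detergent-solubilized Sf9 membrane reagent. Streptavidin microbeads enriched the stained cells before FACS sorting into low and high (top ~1%) gates on anti-HA and streptavidin fluorescence. Each clone's polyreactivity label reflects its gate of origin.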", "values": [
      {"sequence": "QVQLVESGGGLVQAGGSLRLSCAASGSILIYNAMGWYRQARGKERELVAAISTSGGSTYYADSVKGRFTISRDTAKNTVYLQMNSLKPEDTAVYYCAARAYPYGYWGQGTQVTVSS", "polyreactivity (PSR sort gate)": "low polyreactivity"},
      {"sequence": "QVQLVESGGGLVQAGGSLRLSCAASGSILKPYAMRSYRQAPGKERELVAAISGTGGSTYYADSVKGRFTISRDNAKNTVYLQMNSLKPEDTAVYYCNADEFRYAFEYWGQGTQVTVSW", "polyreactivity (PSR sort gate)": "high polyreactivity"},
      {"sequence": "QVQLVESGGGLVQAGGSLRLSCAASGSILLFYVMGGYRQAPGKERELVAAITSSGGGTYYADSVKGRFTISRDNAKNTVYLQMNSLKPEDTALYYCNADDDYYGESYGPEFDYWGQGTQVTVSS", "polyreactivity (PSR sort gate)": "low polyreactivity"},
      {"sequence": "QVQLVESGGGLVQAGGSLRLSCAASGSILLGYDLGWYRQAPGKERELVASIDTNGGSTYYADSVKGRFTISRDNAKNTVYLQMNSLKPEDTAVYYCNADPSFVGGTYDYWGQGTQVTVSS", "polyreactivity (PSR sort gate)": "low polyreactivity"},
      {"sequence": "QVQLVESGGGLVQAGGSLRLSCAASGSILPYYAMGWSRQAPGKERELVATITDGTDTYYADSVKGRFTISRDNAKNTVYLQMNSLKPEDTAVYYCKADGYVYYMHEDYWGQGTQVTVSS", "polyreactivity (PSR sort gate)": "low polyreactivity"},
      {"sequence": "QVQLVESGGGLVQAGGSLRLSCAASGSILPYYAMGWYRQAPGKERELVATITDGTDTYYADSVKGRFTISRDNAKNTVYLQMNSLKPEDTAVYYCNADGYVYYLHEDYWGQGTQVTVSS", "polyreactivity (PSR sort gate)": "low polyreactivity"},
      {"sequence": "QVQLVESGGGLVQAGGSLRLSCAASGSILQQIYAMGWYRPAPGKERELVAAISASGGSTYYADSVKGRFTISRDNAKNTVYLQMNSLKPEDTAVYYCNKVGYYASVLGYDYWGQGTQVTVSS", "polyreactivity (PSR sort gate)": "high polyreactivity"},
      {"sequence": "QVQLVESGGGLVQAGGSLRLSCAASGSILQQYTMGWYRPAPGKERELVAAISSSGSSTYYADSVKGRFTISRDNAKNTVYLQMNSLKPEDTAVYYCNADYHDKFYWGQGTQVTVSS", "polyreactivity (PSR sort gate)": "low polyreactivity"},
      {"sequence": "QVQLVESGGGLVQAGGSLRLSCAASGSILQSYAMGWYRQAPGKERELVAAISGSGGSTYYADSVKGRFTISRDNAKNTVYLQMNSLKPEDTAVYYCAKGPLYRTSRGEFGYWGQGTQVTVSS", "polyreactivity (PSR sort gate)": "low polyreactivity"},
      {"sequence": "QVQLVESGGGLVQAGGSLRLSCAASGSILQVYAMGWYRQAPGKERELVAGISWGGGRTYADSVKGRFTISRDNAKNTVYLQMISLKPEDTAVYYCNKVWRFGYYGSYYWGQGTLVTVSS", "polyreactivity (PSR sort gate)": "high polyreactivity"},
      {"sequence": "QVQLVESGGGLVQAGGSLRLSCAASGSILQYKAMGWYRQAPGKERELVADITSSGGSTYYADSVKGRFTISRDNAKYTVSLQMNSLKPEDTAVYYFAKDTHWAYYWGQGTQVTVSS", "polyreactivity (PSR sort gate)": "low polyreactivity"},
      {"sequence": "QVQLVESGGGLVQAGGSLRLSCAASGSILRRNTMGWYRQAPGKERELVAAINKSGGSTYYADSVKGRFTISRDNAKNTVYLQMNSLKPEDTAVYYCNRDNYYGTKYDYWGQGTQVTVSS", "polyreactivity (PSR sort gate)": "low polyreactivity"},
      {"sequence": "QVQLVESGGGLVQAGGSLRLSCAASGSILSAYAMGWSRQAPGKERELVAAISWSGGSTYYADSVKGRFTISRDNAKNTVYLQMNSLKPEDTAVYYCATVNKKWRRYDYWGQGTQVTVSS", "polyreactivity (PSR sort gate)": "high polyreactivity"},
      {"sequence": "QVQLVESGGGLVQAGGSLRLSCAASGSILSGNTMGWYRPAPGKERELVAAISYGGGSTYYADSVKGRFTISRDNAKNTVYLQMNSLKPEDTAVYYCAADPWYVAYLLDGYGMDYWGQGTQVTVSS", "polyreactivity (PSR sort gate)": "low polyreactivity"},
      {"sequence": "QVQLVESGGGLVQAGGSLRLSCAASGSILSYNAMGWYRQAPGKERELVATITGTGGSTRYADSVKGRFTISRDNAKNTVYLQMNSLKPEDTAVYYCATAAWWYYRIYHEFGYWGQGTQVTVSS", "polyreactivity (PSR sort gate)": "high polyreactivity"},
      {"sequence": "QVQLVESGGGLVQAGGSLRLSCAASGSILSYYAMGWYRQAPGKERELVAAISKSGGRTYYADSVKGRFTISRDNAKNTVYLQMNSLKPEDTAVYYCAAPATYKYDYWGQGTQVTVSS", "polyreactivity (PSR sort gate)": "high polyreactivity"},
      {"sequence": "QVQLVESGGGLVQAGGSLRLSCAASGSILTHYAMGWYRQAPGKERELVAAITWRGGSTYYADSVKGRFTISRDNAKNTVYLQMNSLKPEDSAVYYCNADYFGGGDYWGQGTQVTVSS", "polyreactivity (PSR sort gate)": "low polyreactivity"},
      {"sequence": "QVQLVESGGGLVQAGGSLRLSCAASGSILTSYAMGWSRQAPGKERELVAAISTTGGSTYYADSVKGRFTISRDNAKNTVYLQMNRLKPEDSAVYYCAAAGRTYRPGTGGYGYWGQGTQVTVSS", "polyreactivity (PSR sort gate)": "low polyreactivity"},
      {"sequence": "QVQLVESGGGLVQAGGSLRLSCAASGSILTVYAMGWYRQAHGKERELVARIRSGDRTYYADSVKGRFTISRDNAKNTVYLQMNSLKPEDTAVYYCAAGSQRRYYHTNWDSFNYWGQGTQVTVSS", "polyreactivity (PSR sort gate)": "low polyreactivity"},
      {"sequence": "QVQLVESGGGLVQAGGSLRLSCAASGSILVGNAMGWYRQAPGIERELVAGSSESDGSTNYADSGKGRFTISRDKSKNTVYLPMNSLKPEETAVYYRAADIWTSGDIPYDYWGQGTQVTVSS", "polyreactivity (PSR sort gate)": "low polyreactivity"},
      {"sequence": "QVQLVESGGGLVQAGGSLRLSCAASGSILVGYAMGRYRLAPGKERELVAAISFSGGSTYYADSVKGRFTISRDNAKNTVYLQMNRLKQEDTAVYYCAAKRRVWIFYSSSDDYWGQGSQVTVSS", "polyreactivity (PSR sort gate)": "low polyreactivity"},
      {"sequence": "QVQLVESGGGLVQAGGSLRLSCAASGSILVPYAMGWYRQAPGKERELVAAISIRTGSTYYADSVKGRFTISRDNAKNTVYLQMNSLKPEDTAVYYCNAAHRKPYTGLNYWGQGTQVTVSS", "polyreactivity (PSR sort gate)": "high polyreactivity"},
      {"sequence": "QVQLVESGGGLVQAGGSLRLSCAASGSILVPYSMGWYRQAPGKERELVAAISWGGGSTYYADSVKGRFTISRDNAKNTVYLQMNSLKPEDTAVYYCAADFGYYDYDYWGQGTQVTVSS", "polyreactivity (PSR sort gate)": "low polyreactivity"},
      {"sequence": "QVQLVESGGGLVQAGGSLRLSCAASGSILVYYAMGWYRQAPGKEREFVAAITRSGGSTYYADSVKGRFTISRDNAKNTVYLQMNSLKPEDTAVYYCNARDVVWKRFTRYDFWGQGTQVTVSS", "polyreactivity (PSR sort gate)": "high polyreactivity"},
      {"sequence": "QVQLVESGGGLVQAGGSLRLSCAASGSILWHNAKGWYRQAPGKEREFVAAISARGTRTYYADSVKGRFTISRDNAKNSVYLQMNSLKPEDTAVYYCAARYWDDRARAEDYWGQGTQVTVSS", "polyreactivity (PSR sort gate)": "high polyreactivity"},
      {"sequence": "QVQLVESGGGLVQAGGSLRLSCAASGSILWHNAMGCYRQAPGKEREFVAAISARGTRTYYADSVKGRFTISRDNAKITVYLQMNSLKPEDTAVDYCAARYWDDRARAEDYWGQGTQVTVSS", "polyreactivity (PSR sort gate)": "high polyreactivity"},
      {"sequence": "QVQLVESGGGLVQAGGSLRLSCAASGSILYANAMGWYRQAPGKERELVAAISARGTSTYYADSVKGRFTISRDNAKNTVYLQMNSLKPEDTAVYYCATGRKNAAQRWGYYYWGQGTQVTVSS", "polyreactivity (PSR sort gate)": "high polyreactivity"},
      {"sequence": "QVQLVESGGGLVQAGGSLRLSCAASGSILYFNAMGLYRQAPGKERELVATITSGGSTNYADSVKWRFTISRDNAKNTVYLQMNSQKPEDTAVYYSAADYSTRKADYWVQGTQVTVSS", "polyreactivity (PSR sort gate)": "low polyreactivity"},
      {"sequence": "QVQLVESGGGLVQAGGSLRLSCAASGSILYGNDMGWYRQAPGKERELVATITSSDSTYYADSVKGRFTISRDNAKNTVYLQMNSLKPEDTAVYYCAADSSEWLLKDDYWGQGTQVTVSS", "polyreactivity (PSR sort gate)": "low polyreactivity"},
      {"sequence": "QVQLVESGGGLVQAGGSLRLSCAASGSILYHYAMGWYRQAPGKERELVAGISWRGGSTYYADSVKGRFTISRDNAMNTVYLQMNSLKPEDTAVYYCATLRYPYRFYAFQYYYWGQGTQVTVSS", "polyreactivity (PSR sort gate)": "low polyreactivity"},
      {"sequence": "QVQLVESGGGLVQAGGSLRLSCAASGSILYPYAMGWYRQAPGKERELVAAIRSRGGSTYYADSVKGRFTISRDNAKNTGYLQMNSLKPEDTAVYYCAAGSTRARFDYWGQGTQVTVSS", "polyreactivity (PSR sort gate)": "high polyreactivity"},
      {"sequence": "QVQLVESGGGLVQAGGSLRLSCAASGSILYRNAMGWYRQAPGKERELVAAITYSGARTYYADSVKGRFTISRDNAKNSVYLQMNSLKPEDTAVYYCAATAAGYWYSAYDYWGQGTQVTVSS", "polyreactivity (PSR sort gate)": "low polyreactivity"},
      {"sequence": "QVQLVESGGGLVQAGGSLRLSCAASGSILYYNAMGWYRQAHGKERELVAAISTRGGSTYYADSVKGRFTISRDNAKNTVYLQMNSLKPEDTAVYYCAADHNVIWGYYYWGQGTQVTVSS", "polyreactivity (PSR sort gate)": "high polyreactivity"},
      {"sequence": "QVQLVESGGGLVQAGGSLRLSCAASGSILYYNAMGWYRQAPGKERELVAAITSGGSTYADSVKGRFTISRDNAKNTFYLQMNCLKPEDTAVYYCAADLYWYLSDYGTTLEHDYWGQGTQVTVSS", "polyreactivity (PSR sort gate)": "low polyreactivity"},
      {"sequence": "QVQLVESGGGLVQAGGSLRLSCAASGSILYYNAMGWYRQAPGKERELVAGIRSSGGSTYYADSVKGRFTISRDTAKNTVYLQMNSLKPEDTAVYYCAKRTYWRRGWGFDYWGQGTQVTVSS", "polyreactivity (PSR sort gate)": "high polyreactivity"},
      {"sequence": "QVQLVESGGGLVQAGGSLRLSCAASGSILYYYAMGWYRQAPGKERELVAAISSSGGRTYYADSVKGRFTISRDNAKNTVYLQMNSLKPEDTAVYYCAATNRRQPYKDREDYWGQGTQVTVSS", "polyreactivity (PSR sort gate)": "high polyreactivity"},
      {"sequence": "QVQLVESGGGLVQAGGSLRLSCAASGSINVRYAMGWYRQAPGKERELVAAISWSGGRTYYADSVKGRFTISRDNAKNTVYLQMNSLKPEDTAVYYCAADSSVRYRDTEDYWGQGTQVTVSS", "polyreactivity (PSR sort gate)": "low polyreactivity"},
      {"sequence": "QVQLVESGGGLVQAGGSLRLSCAASGSIRHNTMGWYRQAPGKEREFVASISKRGGSTYYADSVKGRFTISRDNAKNTVYLQMNSLKPEYTAVYYCNAGAVTFVGRDYWGQGTQVTVSS", "polyreactivity (PSR sort gate)": "high polyreactivity"},
      {"sequence": "QVQLVESGGGLVQAGGSLRLSCAASGSIRSYAMGWYRQAPGKERELVAAITRSGGSTYYADSVKGLFTISRDNAKNTVYLQMNSLKPEDTAVYYCAARYTYSYPLFGSWGQGTQVTVSS", "polyreactivity (PSR sort gate)": "high polyreactivity"},
      {"sequence": "QVQLVESGGGLVQAGGSLRLSCAASGSIRSYAMGWYRQAPGKERELVAAITRSGGSTYYADSVKGRFTISRDNAKNTVYLQMNSLKPEDTADYYCGARSTYSYPLFGSWGQGTQVTVSS", "polyreactivity (PSR sort gate)": "high polyreactivity"},
      {"sequence": "QVQLVESGGGLVQAGGSLRLSCAASGSIRYYAMGWYRQAPGKERELVAAISSRGTNTYYADSVKGRFTISRDNAKNTVYLQMNSLKPEDTAVYYCNAVVGLGYNYWGQGTQVTVSS", "polyreactivity (PSR sort gate)": "high polyreactivity"},
      {"sequence": "QVQLVESGGGLVQAGGSLRLSCAASGSISAGNAMGWYRQAPGKERDLVAAISGSGGSTYYADSVKGRFTISRYNAKNTVYLQMNRLKPEDTAVYYCAARGGYRLRYIPYVRYDYWGQGTQVTVSS", "polyreactivity (PSR sort gate)": "high polyreactivity"},
      {"sequence": "QVQLVESGGGLVQAGGSLRLSCAASGSISASYAMGWYRQAPGKERELVAAITSGGSTYYADSVKGRFTISRDNAKNTVYLQMNSLKPEDTAVYYCAKRPKRTYYPHIGYDYWGQGTQVTVSS", "polyreactivity (PSR sort gate)": "low polyreactivity"}
    ]}
  ]
}
